Assay results published in the supplement of paper PMC12764529.
± gives the half width of the 95% confidence interval.

Key:
[1] = folding stability dG unfold (combined trypsin and chymotrypsin); higher = more stable
How it was run: (§1)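 Unfolding free energy was derived, per protease or combined, against a sequence-predicted unfolded-state K50 and a shared folded-state K50, starting from K50 inferred by Bayesian fitting of sequencing counts. Digestion with trypsin and chymotrypsin was carried out on designed mini-proteins under 80 residues without cysteine in a PA-tagged cDNA display construct. Only designs with AlphaFold2 dimer inter-PAE above 15 were kept.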

[2] = folding stability dG unfold from chymotrypsin proteolysis; higher = more stable
How it was run: as §1

[3] = folding stability dG unfold from trypsin proteolysis; higher = more stable
How it was run: as §1

| Sequence | folding stability dG unfold [1] [kcal/mol] | folding stability dG unfold [2] [kcal/mol] | folding stability dG unfold [3] [kcal/mol] |
| --- | --- | --- | --- |
| SAGGSAGGMVEEIIEEFKKKGYNPEVEVRKTSPETTVVTLKLPDKEVIVEVKPLTPEELEEILRSAGGSAGG [r6_786_JUSTAS] | 0.824 ± 0.15 | 1.05 ± 0.089 | 0.371 ± 0.052 |
| SAGGSAGGMVTTKELPSNKTVTVTVTPDPVAGREGATVKPPSTSETKNFGDPAAAAAMSPEKLSSAGGSAGG [r6_740_JUSTAS] | 0.29 ± 0.15 | 0.2 ± 0.071 | 0.42 ± 0.034 |
| SAGGSAGGMVVYLQLPDKEATFFVPPSLSEEEVKERLKKALGDPDAPLTNLKIEEATPEELALESAGGSAGG [r6_122_JUSTAS] | 0.222 ± 0.13 | 0.515 ± 0.2 | -0.153 ± 0.095 |
| SAGGSAGGMVYITVDIKKTDPLNGTEREEVITVKVNPDEVEKVIEELKSAPVNVEILKVTIIPPSAGGSAGG [r6_151_JUSTAS] | 1.56 ± 0.065 | 1.4 ± 0.043 | 1.75 ± 0.075 |
| SAGGSAGGMYVIRVKIYDKETGELIEELTLVFDSEEEAERAVRELAAALPPDVRVEVEIVKLPPSAGGSAGG [r6_688_TrROS_Hall] | 4.99 ± 0.096 | 4.85 ± 0.059 | 5.01 ± 0.18 |
| SAGGSAGGNIDPDDITEVEEETYNFPNGWHIKIDYFRVPDDGQPIMKMEIEPMPPVKPDPNDKKSAGGSAGG [r6_758_TrROS] | 0.627 ± 0.25 | 1.23 ± 0.14 | -0.1 ± 0.11 |
| SAGGSAGGNIKVKVPYERHPDYYYMTVTIYDPGDDKKLELSYMFPPGTKMPAEEWARDIVKDILSAGGSAGG [r6_234_TrROS] | 1.13 ± 0.13 | 1.29 ± 0.1 | 0.789 ± 0.091 |
| SAGGSAGGNITPEAKKLVEELADQISEEFPNNGMDIEVEDITWQPDGNVVIRIRFNGWTIWIPVSAGGSAGG [r6_495_TrROS] | 2.03 ± 0.16 | 2.25 ± 0.05 | 1.44 ± 0.083 |
| SAGGSAGGPANKKYLLVADAEVDPETGTVKVTVEYPNGKKVEFTFPAKNFHPDEKVLVPVVVTDSAGGSAGG [r6_768_TrMRF] | 0.86 ± 0.1 | 0.67 ± 0.17 | 1.02 ± 0.052 |
| SAGGSAGGPEIRITEARRDPNGMFTFIVEIPPEDLDNIKPGEEIEITFNGQEFNFNVQIIPADDSAGGSAGG [r6_373_TrROS] | 0.716 ± 0.29 | 1.13 ± 0.2 | 0.257 ± 0.14 |
| SAGGSAGGPETIPLRFGEEEVLLVLSPEDPDRFLAYFPAEGRVYLYRLLPEGLEFLREVPAEELSAGGSAGG [r6_915_TrMRF] | 2.07 ± 0.1 | 2.03 ± 0.13 | 2.1 ± 0.066 |
| SAGGSAGGPEVTITVEEKDGYLVLTVTVPPGVERLELTIEVNGKLVTLELELKPGQTLTFVLPPSAGGSAGG [r6_971_TrROS_Hall] | 3.97 ± 0.13 | 3.86 ± 0.12 | 4.6 ± 0.3 |
| SAGGSAGGPEVYPVPGLTPEQFRELVERHGGRLRVVLPGGEEVELDFTRDSRPIPGKPAVVVFGSAGGSAGG [r6_303_TrMRF] | 0.12 ± 0.048 | -0.544 ± 0.12 | 0.498 ± 0.019 |
| SAGGSAGGPFKIKITEIFLIPFEPGEMIMIEIRFPNGKVYYIMLQVNPGNGWIWIAIMEIKPPDSAGGSAGG [r6_337_TrROS] | 4.74 ± 0.33 | 5.1 ± 0.12 | 3.91 ± 0.35 |
| SAGGSAGGPIKIKAKIFDPNGQPQEHEGEIDNPNGEPYKIKIDIFVLPDPDDEPNLVINVEIEPSAGGSAGG [r6_335_TrROS] | 2.77 ± 0.13 | 3.33 ± 0.17 | 1.38 ± 0.11 |
| SAGGSAGGPKIRIEIEHYDNYIVISIRIPPGMPPGQEIKFEIGGYPVKVTYDPEDGWMTISFPASAGGSAGG [r6_267_TrROS] | 3.2 ± 0.14 | 3.06 ± 0.082 | 3.24 ± 0.076 |
| SAGGSAGGPKTKTVDFIVPALDENGNPLPDNAKFTFKLPDKTINIDFKRDKDSDYVLVKATITNSAGGSAGG [r6_657_TrMRF] | 0.625 ± 0.098 | 0.901 ± 0.14 | 0.197 ± 0.11 |
| SAGGSAGGPLVFEADATGTAPDDKELVIERVLVVVDPVRGEAHLYARIPGTGEWRYLGTFDLKDSAGGSAGG [r6_329_TrMRF] | 3.21 ± 0.082 | 3.315 ± 0.023 | 2.91 ± 0.093 |

| Sequence | folding stability dG unfold [1] [kcal/mol] | folding stability dG unfold [2] [kcal/mol] | folding stability dG unfold [3] [kcal/mol] |
| --- | --- | --- | --- |
| SAGGSAGGPSLRLTFPFPPGFSVTIELFPDGTARITIHNSDGSLLLSFSIPLPPVIPPDPSSLLSAGGSAGG [r6_238_TrMRF] | 2.84 ± 0.38 | 2.63 ± 0.084 | 3.33 ± 0.17 |
| SAGGSAGGPVIEIEMPKNGFFRVKIWNPGNGKKQEYWIPPDEPDALKSLLDPGIDRVEIEPYPPSAGGSAGG [r6_640_TrROS] | 0.671 ± 0.082 | 1.04 ± 0.1 | -0.000886 ± 0.15 |
| SAGGSAGGPVRITSVRPIPGDPNVVVLELETVDGRPGTVLLVRLPGGERVAVLTLGDRPVVLPLSAGGSAGG [r6_555_TrMRF] | 1.41 ± 0.045 | 1.93 ± 0.065 | 0.42 ± 0.013 |
| SAGGSAGGPVWKIRFPDDGKPYEFHINPNHGMIEVEDPKDGEPKGTVPMPINQLLEKGMEVEPVSAGGSAGG [r6_832_TrROS] | -0.551 ± 0.21 | -0.45 ± 0.26 | -0.769 ± 0.28 |
| SAGGSAGGRFRIKFKNGPVIEIDPNEPTIRFPDGSRRFPLNGDDAEEALEEFLSNGMKITEIEPSAGGSAGG [r6_340_TrROS] | 0.641 ± 0.16 | 0.99 ± 0.14 | -0.149 ± 0.2 |
| SAGGSAGGRIMIPVKNIKGQPAEEAKQWLKAILRELFPPGMKIDIDVQPDKDGEYWVTIDIKPPSAGGSAGG [r6_964_TrROS] | 2 ± 0.44 | 2.48 ± 0.099 | 1.64 ± 0.23 |
| SAGGSAGGRRIYLPDFGAGGSGLVKAAEIAAAFEEEGYVASVSFSTSPFGPSVLVVDVASPSELSAGGSAGG [r6_597_TrMRF] | -0.171 ± 0.14 | -0.0496 ± 0.13 | -0.606 ± 0.17 |
| SAGGSAGGRTLRIMVPMDSPEDAVEQAKEIVRELGLPPNFKIDDINVHRNPNGRYQVMVKIRVNSAGGSAGG [r6_284_TrROS] | 1.35 ± 0.064 | 1.5 ± 0.07 | 1.05 ± 0.052 |
| SAGGSAGGSAAITIEVKPGETVTITLEIEVELPPGARAADGRTFKPGEKVRVTVTLTLRVEPSAGGSAGGSA [r18_450_TrROS_Hall] | 4.26 ± 0.22 | 4.21 ± 0.27 | 3.72 ± 0.21 |
| SAGGSAGGSAAMLNRKPTVYPLPDDTVRLEETVPSPGTKIYKTIKLPPGGLIEEGDVSYPPSAGGSAGGSAG [r3_165_JUSTAS] | -0.521 ± 0.19 | -0.367 ± 0.23 | -1.08 ± 0.31 |
| SAGGSAGGSAAPEVTIKVTITYDPETNVLTIEAEATLPDGRKVRITARINKDGSIEIVSVEEVSAGGSAGGS [r12_1029_TrROS_Hall] | > 6 | 4.61 ± 0.91 | 4.63 ± 0.64 |
| SAGGSAGGSADDGDPNKQEPKPEVKVRPIEIRMSFAYYPPNGEPWMFSIEIRIWVYDGGLVSAGGSAGGSAG [r3_380_TrROS] | 5.34 ± 0.16 | 5.61 ± 0.095 | 3.85 ± 0.1 |
| SAGGSAGGSADEEKLKELAEKLREAGYEVEVERYPDKVVIRVRNKKTGKTLELVFDSVEEALSAGGSAGGSA [r18_278_TrROS_Hall] | 3.92 ± 0.15 | 2.95 ± 0.096 | 4.24 ± 0.12 |
| SAGGSAGGSADGPPTFRVRIKWKNGKKMKFEIDPNDSLEQVADPLSKLPGIDDIKDLEIYPSAGGSAGGSAG [r3_308_TrROS] | 0.764 ± 0.18 | 1.05 ± 0.44 | 0.725 ± 0.13 |
| SAGGSAGGSADNWFIQIKWRHPENGKKRTLHIPFKTPWDVEEIVEELAPPGMDEVEVKIYPFSAGGSAGGSA [r18_258_TrROS] | 1.03 ± 0.061 | 1.25 ± 0.091 | 0.707 ± 0.051 |
| SAGGSAGGSADPSVKPPVIKRLVIDIPLEELEKLFPGKLEKAVELAEEAVKLGFDEVVILGGSAGGSAGGSA [r18_441_TrMRF] | 0.793 ± 0.049 | 1.12 ± 0.023 | 0.116 ± 0.031 |
| SAGGSAGGSADVVVEVEYDSSGDYVLVKVKLKEKEIPFKFSKSLSPEEVIEKAKELAKKAAKSAGGSAGGSA [r18_266_TrMRF] | 0.677 ± 0.13 | 0.584 ± 0.27 | 0.597 ± 0.098 |
| SAGGSAGGSAEEKVFVKLYLNPNEPPTIDLEFFFEDGRVVRLRLDLATGTLNDIDPRPLDFSAGGSAGGSAG [r3_299_TrMRF] | 2.8 ± 0.12 | 2.97 ± 0.046 | 2.74 ± 0.082 |
